How the values were obtained:
ADI-22523 IgG = target: T1, ADI-22523 IgG; assay: BLI; tip anti-ID IgG, solution ADI-22523 IgG
T1 construct: anti-CD3 IgG
Description: ForteBio affinity measurements were performed generally as previously described (Estep et al., MAbs. 2013 5(2):270-8). Briefly, ForteBio affinity measurements were performed by loading antibody IgG or Fabs on-line onto AHC sensors. Sensors were equilibrated off-line in assay buffer for 30 minutes and then monitored on-line for 60 seconds for baseline establishment. For avid binding measurement, sensors with loaded antibodies were exposed to IgG or Fab solutions for 3 minutes, afterwards they were transferred to assay buffer for 3 minutes for off-rate measurement. Kinetics data were fit using a 1:1 binding model in the data analysis software provided by ForteBio to obtain equilibrium dissociation constant (KD=koff/kₒₙ) values. In each column, tip-immobilized antibodies are listed first and solution antibodies second.

CTL-62228 = target: T2, CTL-62228; assay: SPR Carterra, yeast anti-ID
T2 construct: also called glofitamab
Description: (§1) Kinetic analysis was conducted at 25° C. in an HBSTE running buffer system (Carterra Cat #3630) using a Carterra LSA (Carterra USA, Salt Lake City, UT). The sample compartment was maintained at 20° C. for the duration of each experiment.
(§2) For antibody capture experiments, a goat anti-human Fc antibody (Jackson ImmunoResearch) was covalently coupled to an HC30M sensor chip surface via standard amine coupling (1:1 EDC:NHS) and then blocked with ethanolamine (1.0 M, pH 8.5). Covalent coupling steps were performed in 25 mM MES buffer (Carterra, Cat #3625) plus 0.05% Tween20. The anti-CD3 antibodies (100 nM in running buffer) were flowed over discrete regions of interest on the chip surface for 5 minutes. […] Dissociation of the anti-idiotype antibodies was monitored for 300s. Several blank buffer samples were injected over the entire chip surface at the start of each non-regenerative kinetic cycle. The preceding blank buffer injection was used for blank surface subtraction. At the end of each non-regenerative kinetic cycle, all surfaces were regenerated via two 30s injections of 10 mM glycine, pH 1.7.
(§3) For data processing and fitting, sensorgrams were double reference subtracted with a baseline drift correction of 4 RU. Sensorgrams were y-aligned and baseline corrected, filtered and cropped to include only the association and dissociation steps. Data was fitted to a 1:1 binding model using Carterra Kinetics Data Analysis software version 1.7.1.3055.

CTL-62227 = target: T3, CTL-62227; assay: SPR Carterra, yeast anti-ID
T3 construct: also called odronextamab
T3 sequence (VH, as listed by the source, chain 1 of 2): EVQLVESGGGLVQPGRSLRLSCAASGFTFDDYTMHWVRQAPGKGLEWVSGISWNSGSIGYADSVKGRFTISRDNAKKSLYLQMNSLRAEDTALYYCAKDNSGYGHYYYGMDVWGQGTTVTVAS
T3 sequence (VL, as listed by the source, chain 2 of 2): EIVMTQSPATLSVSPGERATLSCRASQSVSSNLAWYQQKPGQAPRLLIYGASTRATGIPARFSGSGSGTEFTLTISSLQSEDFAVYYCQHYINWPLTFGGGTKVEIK
Description: as §1, §2, §3

CTL-62240 = target: T4, CTL-62240; assay: SPR Carterra, yeast anti-ID
T4 construct: also called ONO-4685
Description: as §1, §2, §3

ADI-26919 = target: T5, ADI-26919; assay: SPR Carterra avidity, yeast anti-ID, *koff limit
T5 construct: anti-CD3 antibody made in CHO cells, captured by anti-human Fc
T5 sequence (VH, as listed by the source limits assumed, chain 1 of 2): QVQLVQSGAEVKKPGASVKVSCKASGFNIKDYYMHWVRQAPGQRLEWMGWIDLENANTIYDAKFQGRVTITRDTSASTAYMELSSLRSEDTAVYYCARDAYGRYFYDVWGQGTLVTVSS
T5 sequence (VL, as listed by the source limits assumed, chain 2 of 2): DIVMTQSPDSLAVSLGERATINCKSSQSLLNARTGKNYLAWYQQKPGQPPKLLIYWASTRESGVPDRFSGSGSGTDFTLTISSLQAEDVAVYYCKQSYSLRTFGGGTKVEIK
Description: as §1, §2, §3

ADI-74966 = target: T6, ADI-74966; assay: SPR Carterra avidity, yeast anti-ID
T6 construct: pH-dependent anti-CD3 antibody made in CHO cells
Description: as §1, §2, §3

ADI-67450 = target: T7, ADI-67450; assay: SPR Carterra avidity, yeast anti-ID
T7 construct: anti-CD3 antibody made in CHO cells, captured by anti-human Fc
T7 sequence (VH, as listed by the source limits assumed, chain 1 of 2): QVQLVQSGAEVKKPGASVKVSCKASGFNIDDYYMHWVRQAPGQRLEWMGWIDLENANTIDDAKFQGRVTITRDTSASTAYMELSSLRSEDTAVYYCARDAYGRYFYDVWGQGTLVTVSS
T7 sequence (VL, as listed by the source limits assumed, chain 2 of 2): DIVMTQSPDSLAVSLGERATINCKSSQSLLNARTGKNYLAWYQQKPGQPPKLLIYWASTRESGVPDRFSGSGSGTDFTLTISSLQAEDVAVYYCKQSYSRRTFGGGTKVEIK
Description: as §1, §2, §3

ADI-70326 = target: T8, ADI-70326; assay: SPR Carterra avidity, yeast anti-ID
T8 construct: anti-CD3 antibody made in CHO cells, captured by anti-human Fc
T8 sequence (VH, as listed by the source limits assumed, chain 1 of 2): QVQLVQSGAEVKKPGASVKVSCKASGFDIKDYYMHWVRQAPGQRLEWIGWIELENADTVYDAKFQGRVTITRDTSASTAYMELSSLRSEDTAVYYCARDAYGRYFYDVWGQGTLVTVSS
T8 sequence (VL, as listed by the source limits assumed, chain 2 of 2): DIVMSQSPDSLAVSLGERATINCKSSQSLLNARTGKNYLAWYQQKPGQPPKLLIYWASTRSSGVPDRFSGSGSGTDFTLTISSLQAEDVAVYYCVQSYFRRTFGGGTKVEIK
Description: as §1, §2, §3

ADI-48587 = target: T9, ADI-48587; assay: SPR Carterra avidity, yeast anti-ID
T9 construct: pH-dependent anti-CD3 antibody made in CHO cells
Description: as §1, §2, §3

ADI-26906 IgG = target: T10, ADI-26906 IgG; assay: SPR Carterra avidity, yeast anti-ID
T10 construct: anti-CD3 IgG
Description: as §1, §2, §3

CTL-62223 = target: T11, CTL-62223; assay: SPR Carterra avidity, yeast anti-ID
T11 construct: also called mosunetuzumab
T11 sequence (VH, as listed by the source, chain 1 of 2): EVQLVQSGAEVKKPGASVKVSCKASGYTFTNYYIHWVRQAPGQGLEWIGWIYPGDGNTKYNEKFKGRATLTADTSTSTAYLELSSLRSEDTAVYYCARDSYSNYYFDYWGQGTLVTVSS
T11 sequence (VL, as listed by the source, chain 2 of 2): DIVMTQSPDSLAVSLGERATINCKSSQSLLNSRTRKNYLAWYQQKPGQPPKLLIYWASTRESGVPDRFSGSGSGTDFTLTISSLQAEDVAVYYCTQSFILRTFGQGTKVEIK
Description: as §1, §2, §3

ADI-76361 = target: T12, ADI-76361; assay: SPR Carterra avidity, yeast anti-ID
T12 construct: anti-CD3 antibody made in CHO cells, captured by anti-human Fc
Description: as §1, §2, §3

ADI-26916 IgG = target: T13, ADI-26916 IgG; assay: SPR Carterra avidity, yeast anti-ID
T13 construct: anti-CD3 IgG
Description: as §1, §2, §3

ADI-76359 = target: T14, ADI-76359; assay: SPR Carterra avidity, yeast anti-ID
T14 construct: anti-CD3 antibody made in CHO cells, captured by anti-human Fc
T14 sequence (VH, as listed by the source, chain 1 of 2): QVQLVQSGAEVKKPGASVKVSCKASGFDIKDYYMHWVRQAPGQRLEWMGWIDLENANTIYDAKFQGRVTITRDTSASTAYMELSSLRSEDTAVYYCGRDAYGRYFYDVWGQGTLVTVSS
Description: as §1, §2, §3

ADI-74967 = target: T15, ADI-74967; assay: SPR Carterra avidity, yeast anti-ID
T15 construct: pH-dependent anti-CD3 antibody made in CHO cells
Description: as §1, §2, §3

ADI-26921 IgG = target: T16, ADI-26921 IgG; assay: SPR Carterra avidity, yeast anti-ID
T16 construct: anti-CD3 IgG
Description: as §1, §2, §3

ADI-26943 = target: T17, ADI-26943; assay: SPR Carterra avidity, yeast anti-ID
T17 construct: anti-CD3 antibody made in CHO cells, captured by anti-human Fc
T17 sequence (VH, as listed by the source, chain 1 of 2): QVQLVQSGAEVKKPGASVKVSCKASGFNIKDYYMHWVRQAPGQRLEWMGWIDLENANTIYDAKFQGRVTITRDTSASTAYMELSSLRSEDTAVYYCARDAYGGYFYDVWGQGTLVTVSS
T17 sequence (VL, as listed by the source, chain 2 of 2): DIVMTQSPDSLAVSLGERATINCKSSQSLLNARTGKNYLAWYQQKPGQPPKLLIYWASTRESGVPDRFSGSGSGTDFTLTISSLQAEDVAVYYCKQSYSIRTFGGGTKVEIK
Description: as §1, §2, §3

ADI-74965 = target: T18, ADI-74965; assay: SPR Carterra avidity, yeast anti-ID
T18 construct: pH-dependent anti-CD3 antibody made in CHO cells
Description: as §1, §2, §3

ADI-70327 = target: T19, ADI-70327; assay: SPR Carterra avidity, yeast anti-ID
T19 construct: anti-CD3 antibody made in CHO cells, captured by anti-human Fc
T19 sequence (VH, as listed by the source limits assumed, chain 1 of 2): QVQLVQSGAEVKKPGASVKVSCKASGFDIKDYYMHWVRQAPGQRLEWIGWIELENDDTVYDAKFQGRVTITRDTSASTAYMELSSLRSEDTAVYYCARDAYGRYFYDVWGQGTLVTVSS
Description: as §1, §2, §3

ADI-74968 = target: T20, ADI-74968; assay: SPR Carterra avidity, yeast anti-ID
T20 construct: pH-dependent anti-CD3 antibody made in CHO cells
Description: as §1, §2, §3

ADI-67445 = target: T21, ADI-67445; assay: SPR Carterra avidity, yeast anti-ID
T21 construct: anti-CD3 antibody made in CHO cells, captured by anti-human Fc
Description: as §1, §2, §3

ADI-76358 = target: T22, ADI-76358; assay: SPR Carterra avidity, yeast anti-ID
T22 construct: anti-CD3 antibody made in CHO cells, captured by anti-human Fc
T22 sequence (VH, as listed by the source, chain 1 of 2): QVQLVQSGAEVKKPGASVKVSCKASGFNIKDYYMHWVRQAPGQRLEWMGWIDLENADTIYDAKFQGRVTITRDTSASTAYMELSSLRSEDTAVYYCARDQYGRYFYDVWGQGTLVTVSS
Description: as §1, §2, §3

ADI-26909 = target: T23, ADI-26909; assay: SPR Carterra avidity, yeast anti-ID
T23 construct: anti-CD3 antibody made in CHO cells, captured by anti-human Fc
T23 sequence (VH, as listed by the source limits assumed, chain 1 of 2): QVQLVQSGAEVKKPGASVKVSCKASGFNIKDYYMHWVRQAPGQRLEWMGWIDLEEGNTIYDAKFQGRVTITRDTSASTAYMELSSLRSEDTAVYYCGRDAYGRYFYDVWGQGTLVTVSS
Description: as §1, §2, §3

ADI-48592 = target: T24, ADI-48592; assay: SPR Carterra avidity, yeast anti-ID
T24 construct: pH-dependent anti-CD3 antibody made in CHO cells
T24 sequence (VH, as listed by the source, chain 1 of 2): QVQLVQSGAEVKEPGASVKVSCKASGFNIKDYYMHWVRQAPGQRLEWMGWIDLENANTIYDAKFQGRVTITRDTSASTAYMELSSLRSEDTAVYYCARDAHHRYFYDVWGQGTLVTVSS
T24 sequence (VL, as listed by the source, chain 2 of 2): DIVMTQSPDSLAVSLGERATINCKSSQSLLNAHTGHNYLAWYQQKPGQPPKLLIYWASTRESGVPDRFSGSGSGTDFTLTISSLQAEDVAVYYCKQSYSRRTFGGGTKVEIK
Description: as §1, §2, §3

ADI-26924 = target: T25, ADI-26924; assay: SPR Carterra avidity, yeast anti-ID
T25 construct: anti-CD3 antibody made in CHO cells, captured by anti-human Fc
Description: as §1, §2, §3

ADI-76357 = target: T26, ADI-76357; assay: SPR Carterra avidity, yeast anti-ID
T26 construct: anti-CD3 antibody made in CHO cells, captured by anti-human Fc
Description: as §1, §2, §3

ADI-50024 = target: T27, ADI-50024; assay: SPR Carterra avidity, yeast anti-ID
T27 construct: anti-CD3 antibody made in CHO cells, captured by anti-human Fc
T27 sequence (VH, as listed by the source limits assumed, chain 1 of 2): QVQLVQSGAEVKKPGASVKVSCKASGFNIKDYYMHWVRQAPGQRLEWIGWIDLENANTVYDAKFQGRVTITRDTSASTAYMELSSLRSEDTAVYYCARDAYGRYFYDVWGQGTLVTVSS
Description: as §1, §2, §3

ADI-26915 = target: T28, ADI-26915; assay: SPR Carterra avidity, yeast anti-ID
T28 construct: anti-CD3 antibody made in CHO cells, captured by anti-human Fc
T28 sequence (VH, as listed by the source, chain 1 of 2): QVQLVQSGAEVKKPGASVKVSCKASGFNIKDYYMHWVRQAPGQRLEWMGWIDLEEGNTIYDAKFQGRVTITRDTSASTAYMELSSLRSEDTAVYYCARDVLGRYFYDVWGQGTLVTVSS
Description: as §1, §2, §3

ADI-26913 IgG = target: T29, ADI-26913 IgG; assay: SPR Carterra avidity, yeast anti-ID
T29 construct: anti-CD3 IgG
Description: as §1, §2, §3

ADI-76362 = target: T30, ADI-76362; assay: SPR Carterra avidity, yeast anti-ID
T30 construct: anti-CD3 antibody made in CHO cells, captured by anti-human Fc
Description: as §1, §2, §3

ADI-26920 IgG = target: T31, ADI-26920 IgG; assay: SPR Carterra avidity, yeast anti-ID
T31 construct: anti-CD3 IgG
Description: as §1, §2, §3

ADI-67447 = target: T32, ADI-67447; assay: SPR Carterra avidity, yeast anti-ID
T32 construct: anti-CD3 antibody made in CHO cells, captured by anti-human Fc
T32 sequence (VH, as listed by the source limits assumed, chain 1 of 2): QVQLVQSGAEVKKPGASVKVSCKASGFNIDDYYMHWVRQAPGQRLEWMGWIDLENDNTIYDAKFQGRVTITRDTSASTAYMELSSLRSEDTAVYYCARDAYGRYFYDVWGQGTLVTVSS
Description: as §1, §2, §3

ADI-48576 = target: T33, ADI-48576; assay: SPR Carterra avidity, yeast anti-ID
T33 construct: pH-dependent anti-CD3 antibody made in CHO cells
Description: as §1, §2, §3

ADI-26912 = target: T34, ADI-26912; assay: SPR Carterra avidity, yeast anti-ID
T34 construct: anti-CD3 antibody made in CHO cells, captured by anti-human Fc
T34 sequence (VH, as listed by the source, chain 1 of 2): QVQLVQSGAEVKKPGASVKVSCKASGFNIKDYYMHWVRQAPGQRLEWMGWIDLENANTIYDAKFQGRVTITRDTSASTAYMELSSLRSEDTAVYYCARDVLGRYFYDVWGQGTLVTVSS
Description: as §1, §2, §3

ADI-48650 = target: T35, ADI-48650; assay: SPR Carterra avidity, yeast anti-ID
T35 construct: pH-dependent anti-CD3 antibody made in CHO cells
Description: as §1, §2, §3

ADI-76360 = target: T36, ADI-76360; assay: SPR Carterra avidity, yeast anti-ID
T36 construct: anti-CD3 antibody made in CHO cells, captured by anti-human Fc
Description: as §1, §2, §3

ADI-70330 = target: T37, ADI-70330; assay: SPR Carterra avidity, yeast anti-ID
T37 construct: anti-CD3 antibody made in CHO cells, captured by anti-human Fc
T37 sequence (VH, as listed by the source limits assumed, chain 1 of 2): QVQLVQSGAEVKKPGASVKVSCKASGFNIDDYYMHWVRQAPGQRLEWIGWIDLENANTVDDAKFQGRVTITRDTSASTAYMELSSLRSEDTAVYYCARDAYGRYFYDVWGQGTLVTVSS
Description: as §1, §2, §3

T1 sequence (VH, as listed by the source limits assumed, chain 1 of 2): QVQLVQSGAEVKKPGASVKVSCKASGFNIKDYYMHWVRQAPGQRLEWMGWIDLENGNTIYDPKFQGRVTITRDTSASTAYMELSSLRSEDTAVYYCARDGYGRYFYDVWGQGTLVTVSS
T1 sequence (VL, as listed by the source limits assumed, chain 2 of 2): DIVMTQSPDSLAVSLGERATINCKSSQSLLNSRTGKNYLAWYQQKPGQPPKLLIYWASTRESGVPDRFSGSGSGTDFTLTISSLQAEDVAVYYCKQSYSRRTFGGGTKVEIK

B1: ADI-34132 (antibody, V domains shown)
VH: QVQLVQSGAEVKKPGSSVKVSCKASGGTFSSYAISWVRQAPGQGLEWMGGIIPIFGTANYAQKFQGRVTITADESTSTAYMELSSLRSEDTAVYYCARGAPNYYGSGGYDDGWFDPWGQGTLVTVSS
VL: DIQLTQSPSSLSASVGDRVTITCRASQSISSYLNWYQQKPGKAPKLLIYAASNLQSGVPSRFSGSGSGTDFTLTISSLQPEDFATYYCQQTLHTPITFGGGTKVEIK
notes: anti-ID IgG
- Kd (ADI-22523 IgG): 84900 pM
- binding result (CTL-62228): no binding (tested: up to 200 nM)
- binding result (CTL-62227): no binding (tested: up to 200 nM)
- binding result (CTL-62240): no binding (tested: up to 200 nM)
- Kd (ADI-26919): 44 pM
- Kd (ADI-74966): 580 pM
- binding result (ADI-67450): binds
- binding result (ADI-70326): binds
- binding result (ADI-48587): binds
- Kd (ADI-26906 IgG): 160 pM
- Kd (CTL-62223): 990 pM
- Kd (ADI-76361): 150 pM
- Kd (ADI-26916 IgG): 600 pM
- Kd (ADI-76359): 120 pM
- Kd (ADI-74967): 280 pM
- Kd (ADI-26921 IgG): 360 pM
- Kd (ADI-26943): 150 pM
- binding result (ADI-74965): binds
- binding result (ADI-70327): binds
- binding result (ADI-74968): binds
- Kd (ADI-67445): 650 pM
- binding result (ADI-76358): binds
- Kd (ADI-26909): 900 pM
- binding result (ADI-48592): binds
- Kd (ADI-26924): 200 pM
- Kd (ADI-76357): 570 pM
- Kd (ADI-50024): 350 pM
- binding result (ADI-26915): binds
- Kd (ADI-26913 IgG): 930 pM
- Kd (ADI-76362): 820 pM
- Kd (ADI-26920 IgG): 150 pM
- Kd (ADI-67447): 560 pM
- binding result (ADI-48576): binds
- binding result (ADI-26912): binds
- binding result (ADI-48650): binds
- Kd (ADI-76360): 610 pM
- binding result (ADI-70330): binds

— patent US20250019439A1 (Adimab, published 2025)
